In experiment [1] the target is T1, ErbB1 extracellular domain (recombinant, soluble) (UniProt P00533 25-645, limits assumed).
T1 construct: extracellular domain; also called erbB1 ectodomain; EGFr
The experiment in a line: SPR; peptide 10 µM preinjected over immobilized ErbB1, then ErbB3 (300 nM) with HRGβ1 (5 µM); competitor: erbB3-HRGβ1.

Experiment [2] has as its target T2, ErbB2 extracellular domain (recombinant) (UniProt P04626 23-652, limits assumed).
T2 construct: extracellular domain; also called whole ectodomain of erbB2; full-size erbB2 ectodomain
Description: SPR; peptide 10 µM preinjected over immobilized ErbB2, then ErbB3 (300 nM) with HRGβ1 (5 µM); competitor: erbB3-HRGβ1. A general note: In SPR one partner is held on a chip, and binding of the other changes the refractive index at the surface.

For experiment [3], the target named is T3, ErbB3 extracellular domain (recombinant, soluble) (UniProt P21860 20-643, limits assumed).
T3 construct: extracellular domain; also called ectodomain of erbB3
The experiment in a line: SPR (Biacore 3000), peptide injected over immobilized receptor extracellular domain.

The target in experiment [4] is T2, ErbB2 extracellular domain (recombinant). The experiment is described as above.
Experiment [5] addresses T1, ErbB1 extracellular domain …. The experiment is described as above.
The target in experiment [6] is T3, ErbB3 extracellular domain …. Description: SPR; peptide 10 µM preinjected over immobilized ErbB3, then ErbB3 (300 nM) with HRGβ1 (5 µM); competitor: erbB3-HRGβ1.
Experiment [7] deals with TNF receptor (immobilized, control). Description: SPR (Biacore 3000), peptide injected over immobilized TNF receptor (control).
Experiment [8] addresses T3, ErbB3 extracellular domain …. Description: SPR (Biacore 3000), control peptide injected over immobilized receptor extracellular domain.
Experiment [9] addresses T2, ErbB2 extracellular domain (recombinant). Described as above.
Experiment [10] has as its target T1, ErbB1 extracellular domain …. The experiment is described as above.
Experiment [11] has as its target TNF receptor (immobilized, control). Description: SPR (Biacore 3000), control peptide injected over immobilized TNF receptor (control).
The target of experiment [12] is T4, erbB2 receptor, native full-length, on transfected 32D cells (32D-E2/E4 and 32D-E2/E3) (UniProt P04626 23-1255, limits assumed).
T4 construct: whole, on cells
Description: inhibition of heregulin-induced erbB2-erbB4 dimerization on 32D-E2/E4 cells, chemical cross-linking and immunoblot, dose dependence; 32D-E2/E4 cells; heregulin-induced erbB2-erbB4 heteromerization.

The target in experiment [13] is T1, ErbB1 extracellular domain …. Description: SPR (Biacore), global fit to the 1:1 Langmuir model; receptor taken as erbB1 by the KD of 0.21 µM.
Experiment [14] concerns the target T5, erbB2-SbdIV (recombinantly expressed subdomain IV of erbB2, GST fusion protein) (UniProt P04626 511-652).
T5 construct: domain: subdomain IV; Expressed in E. coli BL-21 (DE3) and eluted from glutathione sepharose; no removal of GST is told; also called erbB2-Sbd W; not shown: glutathione S-transferase of the pGEX-5X-3 vector (N-terminal fusion partner)
The experiment in a line: SPR (Biacore), peptide over immobilized erbB2-SbdIV.

Bridge positions count the residues as written; N and C are the ends. Ends that are not written are not given here.

T3 sequence (P21860 20-643 limits assumed): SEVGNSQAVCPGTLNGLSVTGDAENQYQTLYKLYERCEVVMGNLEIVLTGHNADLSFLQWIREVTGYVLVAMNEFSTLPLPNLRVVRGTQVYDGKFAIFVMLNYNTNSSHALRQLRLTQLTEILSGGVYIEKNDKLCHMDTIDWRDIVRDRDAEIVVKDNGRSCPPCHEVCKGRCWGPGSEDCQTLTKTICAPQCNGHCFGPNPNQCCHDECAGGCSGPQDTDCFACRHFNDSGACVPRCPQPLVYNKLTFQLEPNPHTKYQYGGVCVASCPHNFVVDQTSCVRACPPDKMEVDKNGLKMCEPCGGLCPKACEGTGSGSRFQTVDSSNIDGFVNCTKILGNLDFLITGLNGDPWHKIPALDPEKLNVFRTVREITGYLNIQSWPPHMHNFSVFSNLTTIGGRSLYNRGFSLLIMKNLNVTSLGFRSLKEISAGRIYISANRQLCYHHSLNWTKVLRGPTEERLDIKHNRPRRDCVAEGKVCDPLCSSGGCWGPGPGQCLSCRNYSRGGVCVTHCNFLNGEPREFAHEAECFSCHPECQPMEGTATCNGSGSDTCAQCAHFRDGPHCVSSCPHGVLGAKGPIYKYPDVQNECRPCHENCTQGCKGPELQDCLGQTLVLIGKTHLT

B1: B4-S22-AFD (derived from erbB4) (peptide)
peptide: YCFIFKYADPDCY
modifications: disulfide 2-12 (inferred)
The term Kd denotes the concentration at which binding is half-saturated. As for B1, the results for the “Percent Inhibition” value in experiment [1], in [2] and in experiment [6] were 60.3%, 54.2% and 72.8%, respectively. Moreover, the Kd in experiment [3] is 0.394 µM; in experiment [4] it was 0.639 µM; in experiment [5], 0.583 µM; in [7] it was more than 1000 µM.

B2: CD4-G (CD4 receptor-derived cyclic peptide, negative control) (peptide)
peptide: FCYIGEVEDQCY
modifications: disulfide 2-11 (inferred)
notes: also called control peptide
With B2, the dissociation constant (Kd) in experiment [8], in [9], in [10] and in [11] was more than 1000 µM each time.

B3: B2-S22-AFA (derived from erbB2) (peptide)
peptide: YCFPDEEGACY
modifications: disulfide 2-10 (inferred)
In general, IC50 refers to the point on the concentration scale where inhibition reaches its midpoint. Take B3: the entries for the “Percent Inhibition” value in experiment [1], in experiment [2] and in [6] were 78.4%, 82.5% and 61.7%, respectively. The midpoint of inhibition in [12], the IC50, lay at 0.8 µM. The Kd was 0.429 µM in [3], 0.302 µM in experiment [4], 0.407 µM in experiment [5] and more than 1000 µM in [7].

B4: B3-S22-APQ (derived from erbB3) (peptide)
peptide: YCPIYKYPDVQCY
modifications: disulfide 2-12 (inferred)
As to B4, the “Percent Inhibition” value in experiment [1] was determined as 69%; in [2], 58.1%; in [6], 32.4%. Further, the Kd in experiment [3] was 1.07 µM; in experiment [4], 0.549 µM; in experiment [5], 0.472 µM; in experiment [7] it was more than 1000 µM.

B5: B1-S22-ALG (derived from erbB1) (peptide)
peptide: YCLVWKYADAGCY
modifications: disulfide 2-12 (inferred)
Regarding B5, the “Percent Inhibition” value in experiment [1] was found to be 65.2%; in [2], 71.4%; in experiment [6] it was 75.1%. For the same molecule, the Kd is 0.288 µM in experiment [3], 0.371 µM in experiment [4], 0.449 µM in experiment [5] and more than 1000 µM in experiment [7].

B6: B2-S22-APE (derived from erbB2) (peptide)
peptide: YCPIWKFPDEECY
modifications: disulfide 2-12 (inferred)
One may read the koff as the rate constant with which the complex falls apart. The kon is a measure of how fast the partners come together. B6: the results for the “Percent Inhibition” value in experiment [1], in [2] and in [6] were 80.3%, 51.1% and 42.7%, respectively. In addition, the off-rate (koff) stood at 0.000685 s⁻¹ in experiment [13] and 0.00307 s⁻¹ in [14]. Moreover, the association rate constant (kon) was found to be 3240 M⁻¹ s⁻¹ in experiment [13] and 1620 M⁻¹ s⁻¹ in experiment [14]. Also, the equilibrium dissociation constant (Kd) in experiment [14] is 1.89 µM; in experiment [3], 1.4 µM; in experiment [4], 1.53 µM; in experiment [5], 0.21 µM; in experiment [7], more than 1000 µM.

Values taken from patent US20100120688A1 (University of Pennsylvania, published 2010).
